From IntAct's records for PubMed 17805295

Target: Cdh23, Q99PF4-1
Sequence (Q99PF4 whole entry): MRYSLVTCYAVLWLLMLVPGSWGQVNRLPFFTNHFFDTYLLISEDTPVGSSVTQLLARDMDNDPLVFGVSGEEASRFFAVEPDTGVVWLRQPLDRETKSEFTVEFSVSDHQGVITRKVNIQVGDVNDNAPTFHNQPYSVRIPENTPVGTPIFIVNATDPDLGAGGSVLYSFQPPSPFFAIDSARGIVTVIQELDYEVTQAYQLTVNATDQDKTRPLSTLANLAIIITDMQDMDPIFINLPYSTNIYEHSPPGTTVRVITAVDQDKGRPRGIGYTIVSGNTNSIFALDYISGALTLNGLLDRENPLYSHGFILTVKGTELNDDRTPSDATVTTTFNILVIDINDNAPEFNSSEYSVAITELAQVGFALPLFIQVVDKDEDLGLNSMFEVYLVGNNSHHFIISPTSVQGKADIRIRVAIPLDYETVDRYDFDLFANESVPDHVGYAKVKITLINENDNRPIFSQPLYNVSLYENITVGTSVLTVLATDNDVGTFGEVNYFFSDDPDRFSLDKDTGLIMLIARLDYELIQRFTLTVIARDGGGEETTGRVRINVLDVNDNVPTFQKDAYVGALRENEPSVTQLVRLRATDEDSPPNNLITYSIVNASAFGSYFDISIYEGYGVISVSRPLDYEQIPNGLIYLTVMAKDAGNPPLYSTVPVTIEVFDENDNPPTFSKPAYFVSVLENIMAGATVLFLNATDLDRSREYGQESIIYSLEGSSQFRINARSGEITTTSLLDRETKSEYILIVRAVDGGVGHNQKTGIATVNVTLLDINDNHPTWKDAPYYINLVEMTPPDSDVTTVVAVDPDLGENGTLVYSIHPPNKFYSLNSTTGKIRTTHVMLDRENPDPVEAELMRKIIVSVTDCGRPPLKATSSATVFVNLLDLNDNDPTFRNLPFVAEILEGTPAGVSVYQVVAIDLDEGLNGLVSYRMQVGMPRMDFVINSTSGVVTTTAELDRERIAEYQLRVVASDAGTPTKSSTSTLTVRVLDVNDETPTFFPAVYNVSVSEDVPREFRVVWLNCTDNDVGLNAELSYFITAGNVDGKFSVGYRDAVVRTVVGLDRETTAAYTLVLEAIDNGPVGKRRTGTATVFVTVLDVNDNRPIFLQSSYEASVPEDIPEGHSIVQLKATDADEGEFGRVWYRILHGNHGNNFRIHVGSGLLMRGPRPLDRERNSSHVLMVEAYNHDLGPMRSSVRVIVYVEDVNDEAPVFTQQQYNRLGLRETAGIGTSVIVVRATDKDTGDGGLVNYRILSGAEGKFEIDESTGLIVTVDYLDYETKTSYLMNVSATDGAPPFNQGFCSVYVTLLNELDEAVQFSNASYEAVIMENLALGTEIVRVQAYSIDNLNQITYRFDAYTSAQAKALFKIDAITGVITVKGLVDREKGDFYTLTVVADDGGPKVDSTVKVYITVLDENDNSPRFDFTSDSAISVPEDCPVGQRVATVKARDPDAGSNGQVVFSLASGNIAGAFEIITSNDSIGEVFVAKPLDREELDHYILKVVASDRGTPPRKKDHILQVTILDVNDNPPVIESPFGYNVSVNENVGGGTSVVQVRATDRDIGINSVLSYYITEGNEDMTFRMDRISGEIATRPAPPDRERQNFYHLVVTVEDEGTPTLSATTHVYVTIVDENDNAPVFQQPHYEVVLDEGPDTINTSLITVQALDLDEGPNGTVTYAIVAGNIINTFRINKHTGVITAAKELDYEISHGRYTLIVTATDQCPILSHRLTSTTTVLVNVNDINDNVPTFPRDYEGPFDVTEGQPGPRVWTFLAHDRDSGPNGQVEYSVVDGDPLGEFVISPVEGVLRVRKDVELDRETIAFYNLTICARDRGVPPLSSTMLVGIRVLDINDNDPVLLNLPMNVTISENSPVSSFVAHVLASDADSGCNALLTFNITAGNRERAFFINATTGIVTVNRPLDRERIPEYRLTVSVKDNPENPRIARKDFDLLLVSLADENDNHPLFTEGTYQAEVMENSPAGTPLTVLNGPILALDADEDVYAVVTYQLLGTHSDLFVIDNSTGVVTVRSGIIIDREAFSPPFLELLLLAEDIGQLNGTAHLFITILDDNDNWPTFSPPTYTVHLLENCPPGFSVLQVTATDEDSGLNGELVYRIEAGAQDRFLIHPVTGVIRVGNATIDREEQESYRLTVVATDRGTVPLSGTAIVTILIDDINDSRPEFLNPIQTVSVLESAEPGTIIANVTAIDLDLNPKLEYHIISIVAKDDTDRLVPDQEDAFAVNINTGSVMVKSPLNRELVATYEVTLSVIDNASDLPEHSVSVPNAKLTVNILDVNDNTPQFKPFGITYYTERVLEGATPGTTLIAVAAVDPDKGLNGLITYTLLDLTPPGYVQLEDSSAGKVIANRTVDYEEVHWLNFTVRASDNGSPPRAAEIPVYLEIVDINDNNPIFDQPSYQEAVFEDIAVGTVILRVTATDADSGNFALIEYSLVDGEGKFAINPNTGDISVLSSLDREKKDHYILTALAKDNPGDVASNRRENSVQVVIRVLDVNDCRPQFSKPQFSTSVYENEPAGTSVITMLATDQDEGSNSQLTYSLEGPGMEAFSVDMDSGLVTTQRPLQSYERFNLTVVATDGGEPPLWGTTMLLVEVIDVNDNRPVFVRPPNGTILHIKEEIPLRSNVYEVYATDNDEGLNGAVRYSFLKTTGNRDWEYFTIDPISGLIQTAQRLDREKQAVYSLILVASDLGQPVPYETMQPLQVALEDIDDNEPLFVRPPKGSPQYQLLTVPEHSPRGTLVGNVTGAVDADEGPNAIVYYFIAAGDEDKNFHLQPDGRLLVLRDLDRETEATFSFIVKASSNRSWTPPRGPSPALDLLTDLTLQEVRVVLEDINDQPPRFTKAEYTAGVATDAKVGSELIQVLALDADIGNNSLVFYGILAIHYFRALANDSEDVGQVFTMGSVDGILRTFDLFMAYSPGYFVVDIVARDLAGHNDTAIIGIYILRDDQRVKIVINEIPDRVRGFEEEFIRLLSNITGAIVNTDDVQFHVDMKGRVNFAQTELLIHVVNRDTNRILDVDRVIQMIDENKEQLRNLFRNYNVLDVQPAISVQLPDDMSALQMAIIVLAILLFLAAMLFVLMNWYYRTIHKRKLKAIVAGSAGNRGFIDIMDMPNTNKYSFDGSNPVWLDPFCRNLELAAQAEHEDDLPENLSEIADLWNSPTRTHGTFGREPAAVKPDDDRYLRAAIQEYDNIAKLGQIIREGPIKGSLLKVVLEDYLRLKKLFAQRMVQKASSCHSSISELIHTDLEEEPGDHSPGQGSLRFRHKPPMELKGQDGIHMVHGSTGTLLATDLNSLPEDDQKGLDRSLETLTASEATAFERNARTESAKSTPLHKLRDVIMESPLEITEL

effect of a mutation on the interaction: disrupting interaction strength
Substance: Protocadherin-15 (Mus musculus), Q99PJ1 R139G
